Key:
SHP2-C SH2 = assay: SH2 binding enrichment of the phosphorylated peptide, bacterial display (enrichment ratio); higher = better substrate or ligand; peptides without Tyr show the background
Grb2 SH2 = Grb2 SH2 (UniProt P62993); assay: as above
c-Src SH2 = assay: as above
Jak2 = Jak2 (UniProt O60674); assay: phosphorylation enrichment, bacterial display (enrichment ratio); higher = better substrate or ligand; peptides without Tyr show the background
Fer (mouse) = assay: as above
FGFR1 = FGFR1 (UniProt P11362); assay: as above
FGFR3 = FGFR3 (UniProt P22607); assay: as above
FGFR3, sequence (P22607 whole entry, looked up): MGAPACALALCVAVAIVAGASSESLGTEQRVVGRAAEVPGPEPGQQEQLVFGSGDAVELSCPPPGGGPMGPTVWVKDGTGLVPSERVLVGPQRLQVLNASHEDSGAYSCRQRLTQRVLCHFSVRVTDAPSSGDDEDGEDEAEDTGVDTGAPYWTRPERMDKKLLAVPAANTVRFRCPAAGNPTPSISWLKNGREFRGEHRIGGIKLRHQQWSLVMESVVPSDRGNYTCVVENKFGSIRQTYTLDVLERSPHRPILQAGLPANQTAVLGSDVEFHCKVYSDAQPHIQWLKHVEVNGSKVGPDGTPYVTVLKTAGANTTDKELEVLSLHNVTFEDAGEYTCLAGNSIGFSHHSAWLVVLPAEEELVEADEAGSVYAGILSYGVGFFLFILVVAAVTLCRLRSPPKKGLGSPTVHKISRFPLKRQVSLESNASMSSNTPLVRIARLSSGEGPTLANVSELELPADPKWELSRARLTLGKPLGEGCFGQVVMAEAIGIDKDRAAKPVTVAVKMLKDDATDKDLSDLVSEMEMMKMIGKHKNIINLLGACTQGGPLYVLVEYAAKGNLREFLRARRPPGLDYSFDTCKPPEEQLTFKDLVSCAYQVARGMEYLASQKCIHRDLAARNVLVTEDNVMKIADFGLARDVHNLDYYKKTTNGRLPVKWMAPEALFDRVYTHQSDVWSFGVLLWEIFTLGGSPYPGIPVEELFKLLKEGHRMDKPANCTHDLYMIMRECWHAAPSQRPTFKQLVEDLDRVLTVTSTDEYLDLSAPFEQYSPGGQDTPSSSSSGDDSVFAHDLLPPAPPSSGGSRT

Hck = Hck (UniProt P08631); assay: as above
Hck, sequence (P08631 whole entry, looked up): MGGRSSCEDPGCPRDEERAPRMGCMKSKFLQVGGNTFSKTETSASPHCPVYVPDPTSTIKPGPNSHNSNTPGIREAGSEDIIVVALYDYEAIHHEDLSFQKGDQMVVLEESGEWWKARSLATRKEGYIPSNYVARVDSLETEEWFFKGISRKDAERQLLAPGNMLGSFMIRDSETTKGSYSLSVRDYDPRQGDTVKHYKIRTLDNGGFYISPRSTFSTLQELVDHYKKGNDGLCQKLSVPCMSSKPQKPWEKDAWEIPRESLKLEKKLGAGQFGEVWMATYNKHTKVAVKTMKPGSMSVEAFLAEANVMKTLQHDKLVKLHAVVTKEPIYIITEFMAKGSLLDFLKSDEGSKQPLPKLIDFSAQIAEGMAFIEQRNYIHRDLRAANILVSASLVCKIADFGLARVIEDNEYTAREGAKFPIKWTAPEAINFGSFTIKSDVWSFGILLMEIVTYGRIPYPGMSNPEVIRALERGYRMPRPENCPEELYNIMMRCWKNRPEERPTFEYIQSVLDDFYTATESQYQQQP

Fyn = Fyn (UniProt P06241); assay: as above
Fyn, sequence (P06241 whole entry, looked up): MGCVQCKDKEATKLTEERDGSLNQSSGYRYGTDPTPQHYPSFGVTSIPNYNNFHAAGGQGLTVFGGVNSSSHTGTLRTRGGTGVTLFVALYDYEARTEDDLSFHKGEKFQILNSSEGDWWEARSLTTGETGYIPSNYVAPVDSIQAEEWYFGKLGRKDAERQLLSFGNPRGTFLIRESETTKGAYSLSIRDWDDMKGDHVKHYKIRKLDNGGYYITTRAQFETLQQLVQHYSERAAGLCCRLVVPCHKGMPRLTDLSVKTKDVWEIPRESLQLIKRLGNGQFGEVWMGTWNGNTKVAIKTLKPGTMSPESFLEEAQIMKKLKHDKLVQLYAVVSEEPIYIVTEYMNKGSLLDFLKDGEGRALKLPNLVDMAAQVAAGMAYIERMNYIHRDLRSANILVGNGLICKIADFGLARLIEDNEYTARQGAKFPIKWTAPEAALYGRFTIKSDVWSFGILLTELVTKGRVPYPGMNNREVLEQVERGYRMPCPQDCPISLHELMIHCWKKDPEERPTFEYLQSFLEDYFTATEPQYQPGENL

c-Src = assay: as above
c-Abl (mouse) = assay: as above
EPHB2 = EPHB2 (UniProt P29323); assay: as above
EPHB2, sequence (P29323 whole entry, looked up): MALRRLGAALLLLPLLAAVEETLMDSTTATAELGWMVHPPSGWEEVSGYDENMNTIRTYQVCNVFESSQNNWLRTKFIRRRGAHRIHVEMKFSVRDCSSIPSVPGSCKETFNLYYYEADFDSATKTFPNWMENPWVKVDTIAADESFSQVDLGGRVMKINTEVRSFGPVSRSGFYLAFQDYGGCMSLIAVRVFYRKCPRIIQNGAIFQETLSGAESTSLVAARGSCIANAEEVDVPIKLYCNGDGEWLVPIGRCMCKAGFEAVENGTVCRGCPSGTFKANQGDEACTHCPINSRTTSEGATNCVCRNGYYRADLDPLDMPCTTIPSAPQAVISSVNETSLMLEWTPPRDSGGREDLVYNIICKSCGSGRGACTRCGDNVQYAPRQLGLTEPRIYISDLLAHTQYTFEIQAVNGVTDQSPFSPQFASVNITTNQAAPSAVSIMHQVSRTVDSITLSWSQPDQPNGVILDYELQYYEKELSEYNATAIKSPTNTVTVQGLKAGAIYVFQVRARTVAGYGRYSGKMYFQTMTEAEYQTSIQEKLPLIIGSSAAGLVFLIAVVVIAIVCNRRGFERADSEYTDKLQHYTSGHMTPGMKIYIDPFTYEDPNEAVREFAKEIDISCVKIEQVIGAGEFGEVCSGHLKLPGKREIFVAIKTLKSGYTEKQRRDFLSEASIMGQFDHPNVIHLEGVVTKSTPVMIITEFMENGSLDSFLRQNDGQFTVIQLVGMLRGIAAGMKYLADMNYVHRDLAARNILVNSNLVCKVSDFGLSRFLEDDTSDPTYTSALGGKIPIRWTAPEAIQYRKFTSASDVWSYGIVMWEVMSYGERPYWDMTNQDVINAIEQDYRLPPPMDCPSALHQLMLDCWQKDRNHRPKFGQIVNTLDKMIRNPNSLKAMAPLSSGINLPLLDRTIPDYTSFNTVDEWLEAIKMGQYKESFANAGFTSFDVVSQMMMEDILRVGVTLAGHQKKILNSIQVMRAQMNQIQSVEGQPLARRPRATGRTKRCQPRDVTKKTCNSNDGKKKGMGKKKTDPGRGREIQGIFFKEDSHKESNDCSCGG

AncSZ = assay: as above
MERTK = MERTK (UniProt Q12866); assay: as above
MERTK, sequence (Q12866 whole entry, looked up): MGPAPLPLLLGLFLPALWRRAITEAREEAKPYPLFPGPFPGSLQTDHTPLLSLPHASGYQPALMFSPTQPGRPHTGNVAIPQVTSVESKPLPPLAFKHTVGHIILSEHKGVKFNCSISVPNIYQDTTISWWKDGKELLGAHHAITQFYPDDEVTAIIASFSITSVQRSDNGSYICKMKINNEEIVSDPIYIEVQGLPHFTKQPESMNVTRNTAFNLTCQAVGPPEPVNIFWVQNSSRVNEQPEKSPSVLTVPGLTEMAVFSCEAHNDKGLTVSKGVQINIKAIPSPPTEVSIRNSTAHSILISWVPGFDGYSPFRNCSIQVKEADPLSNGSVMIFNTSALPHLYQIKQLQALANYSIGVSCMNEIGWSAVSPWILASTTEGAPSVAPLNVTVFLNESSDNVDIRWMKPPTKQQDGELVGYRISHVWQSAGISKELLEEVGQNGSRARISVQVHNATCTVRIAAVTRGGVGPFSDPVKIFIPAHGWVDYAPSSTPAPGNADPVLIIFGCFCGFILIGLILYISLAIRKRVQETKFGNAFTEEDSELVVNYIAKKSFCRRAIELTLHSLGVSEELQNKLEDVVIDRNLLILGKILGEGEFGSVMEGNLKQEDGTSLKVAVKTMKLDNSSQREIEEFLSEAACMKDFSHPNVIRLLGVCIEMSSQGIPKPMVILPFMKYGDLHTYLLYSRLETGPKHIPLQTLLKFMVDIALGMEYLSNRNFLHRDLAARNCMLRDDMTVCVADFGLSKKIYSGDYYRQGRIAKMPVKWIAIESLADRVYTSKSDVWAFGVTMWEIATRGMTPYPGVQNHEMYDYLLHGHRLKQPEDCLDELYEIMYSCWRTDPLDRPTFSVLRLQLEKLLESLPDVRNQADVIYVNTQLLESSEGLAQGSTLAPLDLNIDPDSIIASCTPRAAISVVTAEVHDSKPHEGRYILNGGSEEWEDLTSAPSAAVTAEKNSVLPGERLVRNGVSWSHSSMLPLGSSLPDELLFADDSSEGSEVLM

EPHB1 = EPHB1 (UniProt P54762); assay: as above
Fes = Fes (UniProt P07332); assay: as above
Fes, sequence (P07332 whole entry, looked up, the tested form may be a part): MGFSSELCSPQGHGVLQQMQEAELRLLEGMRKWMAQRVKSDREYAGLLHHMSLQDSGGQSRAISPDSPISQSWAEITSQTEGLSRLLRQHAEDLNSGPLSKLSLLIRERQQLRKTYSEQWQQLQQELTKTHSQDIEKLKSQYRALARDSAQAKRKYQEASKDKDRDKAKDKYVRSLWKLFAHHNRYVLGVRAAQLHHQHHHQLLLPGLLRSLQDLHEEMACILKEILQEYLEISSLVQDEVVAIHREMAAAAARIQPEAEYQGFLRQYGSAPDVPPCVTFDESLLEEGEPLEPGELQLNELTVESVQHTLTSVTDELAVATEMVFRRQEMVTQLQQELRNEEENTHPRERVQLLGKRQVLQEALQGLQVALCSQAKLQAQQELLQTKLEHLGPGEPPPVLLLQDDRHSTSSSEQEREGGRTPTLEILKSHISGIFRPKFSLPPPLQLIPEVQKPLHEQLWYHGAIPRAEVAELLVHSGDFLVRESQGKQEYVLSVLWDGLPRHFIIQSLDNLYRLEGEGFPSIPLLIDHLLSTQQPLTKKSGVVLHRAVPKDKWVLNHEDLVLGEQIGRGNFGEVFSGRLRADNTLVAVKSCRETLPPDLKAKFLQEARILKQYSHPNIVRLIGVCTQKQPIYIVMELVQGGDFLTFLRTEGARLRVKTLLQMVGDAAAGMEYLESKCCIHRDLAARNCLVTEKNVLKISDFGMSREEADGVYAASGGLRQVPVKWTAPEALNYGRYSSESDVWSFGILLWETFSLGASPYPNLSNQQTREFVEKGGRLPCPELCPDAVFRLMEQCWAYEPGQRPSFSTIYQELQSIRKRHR
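Throughout, for SH2 binding enrichment of the phosphorylated peptide, bacterial display: peptide library displayed on the E. coli surface as eCPX fusions, selected cells deep-sequenced, score is each peptide's frequency after selection divided by its frequency in the input.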
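Throughout, for phosphorylation enrichment, bacterial display: 11-residue human phosphosite peptides and single-mutation variants displayed on the E. coli surface, counted by deep sequencing, each peptide's frequency after selection divided by its frequency in the unselected input library; frequency after pTyr selection over input frequency; kinase dosed for 20-30% of maximal phosphorylation in three min.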

Grb2 SH2, sequence (P62993 whole entry, looked up): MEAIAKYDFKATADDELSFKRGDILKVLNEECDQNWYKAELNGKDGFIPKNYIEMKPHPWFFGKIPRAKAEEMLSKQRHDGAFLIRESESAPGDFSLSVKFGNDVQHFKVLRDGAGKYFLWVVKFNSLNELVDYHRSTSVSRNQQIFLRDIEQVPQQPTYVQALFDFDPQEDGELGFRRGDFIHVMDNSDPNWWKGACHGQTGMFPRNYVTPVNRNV

Row | Sequence | SH2 binding enrichment (SHP2-C SH2) | SH2 binding enrichment (Grb2 SH2) | SH2 binding enrichment (c-Src SH2) | phosphorylation enrichment (Jak2) | phosphorylation enrichment (Fer (mouse)) | phosphorylation enrichment (FGFR1) | phosphorylation enrichment (FGFR3) | phosphorylation enrichment (Hck) | phosphorylation enrichment (Fyn) | phosphorylation enrichment (c-Src) | phosphorylation enrichment (c-Abl (mouse)) | phosphorylation enrichment (EPHB2) | phosphorylation enrichment (AncSZ) | phosphorylation enrichment (MERTK) | phosphorylation enrichment (EPHB1) | phosphorylation enrichment (Fes)
1 | VKMLLYTEVTR [GDI1_Y93] | 0.706 | 0.869 | 0.771 | 1.23 | 1.08 | 0.529 | 0.883 | 1.24 | 0.759 | 0.834 | 0.83 | 1.25 | 1.32 | 2.58 | 3 | 1.43
2 | VKPENYWRLDI [VHL_Y175_R176W] | 0.876 | 0.902 | 0.586 | 1.39 | 0.441 | 0.783 | 0.895 | 0.443 | 0.381 | 0.377 | 0.839 | 0.61 | 1.13 | 0.588 | 0.814 | 1.15
3 | VKYGAYINDFK [GLB1_Y488_N484K] | 1.06 | 7.46 | 2.57 | 0.573 | 0.353 | 0.363 | 0.463 | 0.379 | 0.568 | 0.566 | 0.605 | 0.46 | 0.691 | 0.381 | 0.455 | 0.791
4 | VLDCHYPEDEV [C1QBP_Y188] | 0.929 | 1.01 | 0.468 | 1.3 | 0.632 | 0.596 | 0.88 | 0.629 | 0.464 | 0.571 | 0.919 | 0.725 | 1.22 | 0.556 | 0.589 | 1.27
5 | VLNKGYRMVVN [HINT1_Y94_G89V] | 0.538 | 0.707 | 0.424 | 0.433 | 0.311 | 0.392 | 0.396 | 0.368 | 0.383 | 0.326 | 0.361 | 0.343 | 0.557 | 0.339 | 0.362 | 0.539
6 | VLTSKYCGGGG [HBA1_Y141_R142C] | 0.804 | 0.884 | 0.545 | 0.634 | 0.394 | 0.384 | 0.577 | 0.467 | 0.429 | 0.354 | 0.747 | 0.419 | 0.603 | 0.391 | 0.474 | 0.772
7 | VNKGGYFSVNL [C3orf33_Y164_S160N] | 0.725 | 0.648 | 1.4 | 1.23 | 0.395 | 0.599 | 0.603 | 0.411 | 0.456 | 0.398 | 0.688 | 0.411 | 0.832 | 0.412 | 0.553 | 1.05
8 | VNKIFHPDFIV [LIG3_Y768_Y768H_YF] | 0.744 | 0.873 | 0.462 | 0.695 | 0.397 | 0.419 | 0.547 | 0.39 | 0.447 | 0.497 | 0.6 | 0.454 | 0.793 | 0.432 | 0.487 | 0.871
9 | VNTTLYEKFTY [TEK_Y1108] | 0.826 | 0.764 | 3.14 | 0.804 | 5.72 | 0.483 | 0.648 | 4.55 | 3.69 | 3.87 | 0.908 | 1.13 | 0.983 | 4.25 | 1.92 | 0.879
10 | VQEDIYDEFVE [ALDH2_Y332] | 0.408 | 0.752 | 0.437 | 1.34 | 0.658 | 0.459 | 0.731 | 1.15 | 1.89 | 1.87 | 0.859 | 0.715 | 1.2 | 0.542 | 0.728 | 1.3
11 | VRQQDYKKVEE [HADHA_Y283_V282D] | 0.532 | 1.02 | 0.414 | 0.564 | 0.376 | 0.514 | 0.442 | 0.482 | 0.417 | 0.43 | 0.423 | 0.561 | 0.783 | 0.419 | 0.517 | 0.604
12 | VRSVDYVLFRS [FAM189B_Y361] | 1.12 | 1.13 | 0.648 | 0.583 | 0.544 | 2.09 | 1.4 | 0.528 | 0.455 | 0.403 | 0.516 | 0.534 | 1.06 | 0.44 | 0.825 | 0.831
13 | VRTSKYRGGGG [HBA1_Y141_L137R] | 0.571 | 0.602 | 0.353 | 0.609 | 0.365 | 0.423 | 0.618 | 0.424 | 0.426 | 0.542 | 0.637 | 0.407 | 0.64 | 0.648 | 0.366 | 0.676
14 | VSSSDYFSFVL [USP24_Y2138_Y2134S] | 0.679 | 0.715 | 0.52 | 8.84 | 1.1 | 12.3 | 10.5 | 2.49 | 5.34 | 7.49 | 4.78 | 3.25 | 3.42 | 4.39 | 4.7 | 1.66
15 | VTPVMYTFDEF [COL10A1_Y623_G618V_YF] | 0.698 | 0.93 | 0.772 | 1.02 | 0.458 | 0.591 | 0.654 | 0.531 | 0.737 | 0.715 | 0.662 | 0.668 | 1.03 | 0.962 | 0.665 | 1.19
16 | VTSLKYSTPPY [BRIP1_Y916_S919P] | 1.31 | 0.955 | 0.434 | 0.565 | 0.352 | 0.358 | 0.515 | 0.396 | 0.366 | 0.389 | 0.483 | 0.344 | 0.625 | 0.387 | 0.355 | 0.681

From the supplement of paper PMC10065799, “High-throughput profiling of sequence recognition by tyrosine kinases and SH2 domains using bacterial peptide display” (eLife, 2023)
